Measurements reported in IntAct's records for PubMed 31515488.

B1: Microtubule-associated protein RP/EB family member 1 (Homo sapiens), Q15691 (parent)
chain: MAVNVYSTSVTSDNLSRHDMLAWINESLQLNLTKIEQLCSGAAYCQFMDMLFPGSIALKKVKFQAKLEHEYIQNFKILQAGFKRMGVDKIIPVDKLVKGKFQDNFEFVQWFKKFFDANYDGKDYDPVAARQGQETAVAPSLVAPALNKPKKPLTSSSAAPQRPISTQRTAAAPKAGPGVVRKNPGVGNGDDEAAELMQQVNVLKLTVEDLEKERDFYFGKLRNIELICQENEGENDPVLQRIVDILYATDEGFVIPDEGGPQEEQEEY
B2: Protein BANP (Homo sapiens), Q8N9N5 (parent)
chain: MMSEHDLADVVQIAVEDLSPDHPVVLENHVVTDEDEPALKRQRLEINCQDPSIKTICLRLDSIEAKLQALEATCKSLEEKLDLVTNKQHSPIQVPMVAGSPLGATQTCNKVRCVVPQTTVILNNDRQNAIVAKMEDPLSNRAPDSLENVISNAVPGRRQNTIVVKVPGQEDSHHEDGESGSEASDSVSSCGQAGSQSIGSNVTLITLNSEEDYPNGTWLGDENNPEMRVRCAIIPSDMLHISTNCRTAEKMALTLLDYLFHREVQAVSNLSGQGKHGKKQLDPLTIYGIRCHLFYKFGITESDWYRIKQSIDSKCRTAWRRKQRGQSLAVKSFSRRTPNSSSYCPSEPMMSTPPPASELPQPQPQPQALHYALANAQQVQIHQIGEDGQVQVGHLHIAQVPQGEQVQITQDSEGNLQIHHVGQDGQLLEATRIPCLLAPSVFKASSGQVLQGAQLIAVASSDPAAAGVDGSPLQGSDIQVQYVQLAPVSDHTAGAQTAEALQPTLQPEMQLEHGAIQIQ
partner: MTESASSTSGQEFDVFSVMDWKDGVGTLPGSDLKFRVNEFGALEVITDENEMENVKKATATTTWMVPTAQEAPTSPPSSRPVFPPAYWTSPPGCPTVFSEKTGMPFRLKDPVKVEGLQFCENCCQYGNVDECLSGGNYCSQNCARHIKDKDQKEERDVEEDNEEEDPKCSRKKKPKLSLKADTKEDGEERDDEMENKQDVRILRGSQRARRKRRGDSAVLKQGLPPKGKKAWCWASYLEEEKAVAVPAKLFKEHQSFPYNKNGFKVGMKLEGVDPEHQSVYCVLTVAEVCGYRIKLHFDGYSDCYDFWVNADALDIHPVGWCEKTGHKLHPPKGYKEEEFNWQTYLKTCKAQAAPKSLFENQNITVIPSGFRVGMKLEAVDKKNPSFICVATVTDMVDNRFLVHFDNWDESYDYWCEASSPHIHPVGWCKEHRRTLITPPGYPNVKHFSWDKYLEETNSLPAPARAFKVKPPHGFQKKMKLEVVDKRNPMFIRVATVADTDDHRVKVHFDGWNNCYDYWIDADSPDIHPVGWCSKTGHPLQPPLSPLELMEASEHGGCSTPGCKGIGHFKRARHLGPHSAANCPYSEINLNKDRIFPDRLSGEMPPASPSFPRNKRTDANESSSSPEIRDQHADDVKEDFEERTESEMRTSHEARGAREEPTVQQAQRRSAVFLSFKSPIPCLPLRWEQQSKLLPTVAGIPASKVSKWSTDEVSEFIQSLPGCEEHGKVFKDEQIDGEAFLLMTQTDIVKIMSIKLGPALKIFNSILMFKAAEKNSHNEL
B3: Tuftelin-interacting protein 11 (Homo sapiens), Q9UBB9 (parent)
chain: MSLSHLYRDGEGRIDDDDDERENFEITDWDLQNEFNPNRQRHWQTKEEATYGVWAERDSDDERPSFGGKRARDYSAPVNFISAGLKKGAAEEAELEDSDDEEKPVKQDDFPKDFGPRKLKTGGNFKPSQKGFAGGTKSFMDFGSWERHTKGIGQKLLQKMGYVPGRGLGKNAQGIINPIEAKQRKGKGAVGAYGSERTTQSMQDFPVVDSEEEAEEEFQKELSQWRKDPSGSKKKPKYSYKTVEELKAKGRISKKLTAPQKELSQVKVIDMTGREQKVYYSYSQISHKHNVPDDGLPLQSQQLPQSGKEAKAPGFALPELEHNLQLLIDLTEQEIIQNDRQLQYERDMVVNLFHELEKMTEVLDHEERVISNLSKVLEMVEECERRMQPDCSNPLTLDECARIFETLQDKYYEEYRMSDRVDLAVAIVYPLMKEYFKEWDPLKDCTYGTEIISKWKSLLENDQLLSHGGQDLSADAFHRLIWEVWMPFVRNIVTQWQPRNCDPMVDFLDSWVHIIPVWILDNILDQLIFPKLQKEVENWNPLTDTVPIHSWIHPWLPLMQARLEPLYSPIRSKLSSALQKWHPSDSSAKLILQPWKDVFTPGSWEAFMVKNIVPKLGMCLGELVINPHQQHMDAFYWVIDWEGMISVSSLVGLLEKHFFPKWLQVLCSWLSNSPNYEEITKWYLGWKSMFSDQVLAHPSVKDKFNEALDIMNRAVSSNVGAYMQPGARENIAYLTHTERRKDFQYEAMQERREAENMAQRGIGVAASSVPMNFKDLIETKAEEHNIVFMPVIGKRHEGKQLYTFGRIVIYIDRGVVFVQGEKTWVPTSLQSLIDMAK
partner: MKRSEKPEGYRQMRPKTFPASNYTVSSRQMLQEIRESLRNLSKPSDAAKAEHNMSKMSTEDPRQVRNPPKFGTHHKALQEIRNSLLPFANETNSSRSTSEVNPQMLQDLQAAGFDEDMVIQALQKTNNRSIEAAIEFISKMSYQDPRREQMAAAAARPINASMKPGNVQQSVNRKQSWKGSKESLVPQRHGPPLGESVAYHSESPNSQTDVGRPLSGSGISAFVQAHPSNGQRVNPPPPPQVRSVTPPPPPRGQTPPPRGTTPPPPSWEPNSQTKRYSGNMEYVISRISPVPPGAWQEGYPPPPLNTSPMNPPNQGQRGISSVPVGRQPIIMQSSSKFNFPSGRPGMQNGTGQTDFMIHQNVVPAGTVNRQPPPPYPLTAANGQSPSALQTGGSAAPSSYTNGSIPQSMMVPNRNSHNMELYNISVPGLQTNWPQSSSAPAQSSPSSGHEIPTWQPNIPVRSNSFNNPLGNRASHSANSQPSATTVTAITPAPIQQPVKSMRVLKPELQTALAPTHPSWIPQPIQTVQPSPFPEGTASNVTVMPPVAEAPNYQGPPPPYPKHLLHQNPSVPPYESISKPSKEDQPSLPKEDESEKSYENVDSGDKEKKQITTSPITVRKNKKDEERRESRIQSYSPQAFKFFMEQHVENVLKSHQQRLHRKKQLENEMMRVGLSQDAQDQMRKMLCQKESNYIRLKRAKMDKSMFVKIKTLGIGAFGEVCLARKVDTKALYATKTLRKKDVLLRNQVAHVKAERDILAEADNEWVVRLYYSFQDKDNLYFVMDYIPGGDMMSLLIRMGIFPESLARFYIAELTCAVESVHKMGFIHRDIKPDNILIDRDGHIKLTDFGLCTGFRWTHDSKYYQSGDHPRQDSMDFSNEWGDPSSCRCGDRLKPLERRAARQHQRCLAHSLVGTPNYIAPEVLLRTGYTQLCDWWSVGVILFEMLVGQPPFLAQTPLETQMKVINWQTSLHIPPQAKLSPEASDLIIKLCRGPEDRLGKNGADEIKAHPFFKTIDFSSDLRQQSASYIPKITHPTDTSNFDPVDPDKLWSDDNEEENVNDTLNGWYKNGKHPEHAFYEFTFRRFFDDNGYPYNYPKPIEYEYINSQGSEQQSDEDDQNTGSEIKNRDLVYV
B4: Microtubule-associated tumor suppressor candidate 2 (Homo sapiens), Q5JR59-3 (parent)
chain: MGHCCCKPYNCLQCLDKTNESALVKEKELSIELANIRDEVAFHTAKCEKLQKEKEELERRFEDEVKRLGWQQQAELQELEERLQLQFEAEMARLQEEHGDQLLSIRCQHQEQVEDLTASHDAALLEMENNHTVAITILQDDHDHKVQELMSTHELEKKELEENFEKLRLSLQDQVDTLTFQSQSLRDRARRFEEALRKNTEEQLEIALAPYQHLEEDMKSLKQVLEMKNQQIHEQEKKILELEKLAEKNIILEEKIQVLQQQNEDLKARIDQNTVVTRQLSEENANLQEYVEKETQEKKRLSRTNEELLWKLQTGDPTSPIKLSPTSPVYRGSSSGPSSPARVSTTPR
partner: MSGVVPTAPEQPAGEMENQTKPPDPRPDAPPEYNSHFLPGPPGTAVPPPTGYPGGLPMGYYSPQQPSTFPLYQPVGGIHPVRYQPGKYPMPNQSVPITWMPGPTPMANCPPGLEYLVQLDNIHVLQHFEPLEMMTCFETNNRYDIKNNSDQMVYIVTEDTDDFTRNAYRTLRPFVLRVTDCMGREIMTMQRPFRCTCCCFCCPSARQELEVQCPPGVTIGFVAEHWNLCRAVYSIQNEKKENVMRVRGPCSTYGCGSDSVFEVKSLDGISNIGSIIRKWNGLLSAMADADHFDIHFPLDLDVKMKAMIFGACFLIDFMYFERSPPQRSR

Variants of: B1
Details: with mare3_human MAPRE3, Q9UPY8
mare3_human MAPRE3, Q9UPY8, sequence (Q9UPY8 whole entry): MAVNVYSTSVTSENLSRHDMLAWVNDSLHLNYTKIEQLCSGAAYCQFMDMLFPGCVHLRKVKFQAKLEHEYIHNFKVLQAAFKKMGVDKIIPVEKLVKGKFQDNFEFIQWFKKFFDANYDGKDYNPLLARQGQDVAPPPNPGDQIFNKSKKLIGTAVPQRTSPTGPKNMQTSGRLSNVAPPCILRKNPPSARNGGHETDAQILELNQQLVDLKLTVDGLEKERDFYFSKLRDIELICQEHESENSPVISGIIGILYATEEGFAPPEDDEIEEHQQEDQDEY

Variant	effect of a mutation on the interaction
N201S	with no effect
I56V	with no effect

Variants of: B2
Details: with lmbl3_human L3MBTL3, Q96JM7

Variant	effect of a mutation on the interaction
P348S	with no effect

Variants of: B3
Details: with lats1_human LATS1, O95835

Variant	effect of a mutation on the interaction
S688L	with no effect
R8Q	with no effect

Variants of: B4
Details: with pls4_human PLSCR4, Q9NRQ2

Variant	effect of a mutation on the interaction
A89V	with no effect
